System: pNaKtide

Src kinase (mouse, endogenous in the liver of C57BL/6J mice)
Src phosphorylation in mouse liver, ratio pSrc/pSrc+cSrc by Western blot: Src phosphorylation peaked in the HFD groups at week 20, with paucity on pSrc peak in the pNaKtide and Exercise groups
